Measurements as given in patent publication US20170260257A1 (GREEN CROSS, published 2017).

Experiments:
[1] = molecular target: G145R HBsAg mutant of patient C** (HBV recurred after liver transplantation) (hepatitis B virus); assay: sandwich ELISA: plate coated with the antibody (immobilized antibody rHBIG), patient blood, detection with sheep anti-HBsAg/peroxidase
[2] = molecular target: G145R HBsAg mutant of patient L** (HBV recurred after liver transplantation) (hepatitis B virus); assay: as above
[3] = molecular target: G145R HBsAg mutant of patient W** (HBV recurred after liver transplantation) (hepatitis B virus); assay: as above
[4] = molecular target: G145R HBsAg mutant of patient B** (HBV recurred after liver transplantation) (hepatitis B virus); assay: as above
[5] = molecular target: T1, G145R HBsAg mutant of patient S** (HBV recurred after liver transplantation) (hepatitis B virus); assay: as above
T1 construct: Position 145 of the HBV surface protein

[6] = molecular target: HBsAg of YMDD mutant virus, patient blood sample YMDD #14 (hepatitis B virus); assay: sandwich ELISA: plate coated with the antibody, patient blood, detection with sheep anti-HBsAg/peroxidase
[7] = molecular target: HBsAg of YMDD mutant virus, patient blood sample YMDD #1 (hepatitis B virus); assay: as above
[8] = molecular target: HBsAg of YMDD mutant virus, patient blood sample YMDD #5 (hepatitis B virus); assay: as above
[9] = molecular target: HBsAg of YMDD mutant virus, patient blood sample YMDD #3 (hepatitis B virus); assay: as above
[10] = molecular target: HBsAg of YMDD mutant virus, patient blood sample YMDD #10 (hepatitis B virus); assay: as above
[11] = molecular target: HBsAg of YMDD mutant virus, patient blood sample YMDD #6 (hepatitis B virus); assay: as above
[12] = molecular target: HBsAg of YMDD mutant virus, patient blood sample YMDD #13 (hepatitis B virus); assay: as above
[13] = molecular target: HBsAg of YMDD mutant virus, patient blood sample YMDD #12 (hepatitis B virus); assay: as above
[14] = molecular target: HBsAg of YMDD mutant virus, patient blood sample YMDD #9 (hepatitis B virus); assay: as above
[15] = molecular target: HBsAg of YMDD mutant virus, patient blood sample YMDD #4 (hepatitis B virus); assay: as above
[16] = molecular target: HBsAg of YMDD mutant virus, patient blood sample YMDD #11 (hepatitis B virus); assay: as above
[17] = molecular target: HBsAg of YMDD mutant virus, patient blood sample YMDD #8 (hepatitis B virus); assay: as above
[18] = molecular target: HBsAg of YMDD mutant virus, patient blood sample YMDD #7 (hepatitis B virus); assay: as above
[19] = molecular target: HBsAg mutant of patient CH 62 (chronic hepatitis) (hepatitis B virus); assay: as above
[20] = molecular target: HBsAg mutant of patient CH 75 (chronic hepatitis) (hepatitis B virus); assay: as above
[21] = molecular target: HBsAg mutant of patient LC 98 (liver cirrhosis) (hepatitis B virus); assay: as above
[22] = molecular target: HBsAg mutant of patient LC 59 (liver cirrhosis) (hepatitis B virus); assay: as above
[23] = molecular target: HBsAg mutant of patient CH 34 (chronic hepatitis) (hepatitis B virus); assay: as above
[24] = molecular target: HBsAg mutant of patient HCC 11 (hepatocellular carcinoma) (hepatitis B virus); assay: as above
[25] = molecular target: HBsAg mutant of patient CH 33 (chronic hepatitis) (hepatitis B virus); assay: as above
[26] = molecular target: HBsAg mutant of patient HCC 22 (hepatocellular carcinoma) (hepatitis B virus); assay: as above
[27] = molecular target: HBsAg mutant of patient HCC 94 (hepatocellular carcinoma) (hepatitis B virus); assay: as above
[28] = molecular target: HBsAg mutant of patient LC 32 (liver cirrhosis) (hepatitis B virus); assay: as above
[29] = molecular target: HBsAg mutant of patient LC 53 (liver cirrhosis) (hepatitis B virus); assay: as above
[30] = molecular target: HBsAg mutant of patient CH 32 (chronic hepatitis) (hepatitis B virus); assay: as above
[31] = molecular target: T2, HBsAg mutant of patient CH 15 (chronic hepatitis) (hepatitis B virus); assay: as above
T2 construct: Positions count on the S (surface) protein

[32] = molecular target: HBsAg mutant of patient HCC 1 (hepatocellular carcinoma) (hepatitis B virus); assay: as above

B1: the antibody of the present invention comprising a heavy-chain variable region having amino acid sequence of SEQ ID NO: 2 and a light-chain variable region … (antibody, V domains shown)
VH: EVQLVESGGGLVKPGGSLRLSCSASGFSLTKYKMTWVRQAPGKGLEWVSSISSTSRDIDYADSVKGRFTISRDNAKNSLFLQMSSLRVDDTAVYYCTRDGWLWGWDVRSNYYYNALDVWGQGTTVTVSS
VL: DIVVTQSPSSLSASVGDRVTITCRASQGIYNSIAWYQQKPGKAPKLLLYSTSTLLSGVPSRFSGSGSGTDYTLTITNLQPEDFATYYCQQYFVTPETFGQGTKLEIKR
notes: Captured with goat anti-human IgG (Fc specific) agarose and compared with a human IgG1 isotype control, so a human IgG; also called rHBIG
ELISA signal (name and unit not given) [1]: 2.47 | ELISA signal (name and unit not given) [2]: 2.72 | ELISA signal (name and unit not given) [3]: 2.66 | ELISA signal (name and unit not given) [4]: 3.08 | ELISA signal (name and unit not given) [5]: 2.53 | A450 [6]: 0.815 A450 | A450 [7]: 1.16 A450 | A450 [8]: 0.356 A450 | A450 [9]: 0.957 A450 | A450 [10]: 1.13 A450 | A450 [11]: 1.04 A450 | A450 [12]: 1.07 A450 | A450 [13]: 0.876 A450 | A450 [14]: 0.834 A450 | A450 [15]: 1.02 A450 | A450 [16]: 0.786 A450 | A450 [17]: 1.14 A450 | A450 [18]: 1.1 A450 | ELISA [19]: 3.08 | ELISA [20]: 2.93 | ELISA [21]: 3.55 | ELISA [22]: 3.63 | ELISA [23]: 1.37 | ELISA [24]: 3.36 | ELISA [25]: 2.83 | ELISA [26]: 3.52 | ELISA [27]: 3.56 | ELISA [28]: 2.73 | ELISA [29]: 3.5 | ELISA [30]: 2.95 | ELISA [31]: 3.06 | ELISA [32]: 3.61
